Measurements as given in article PMC11952830.

Biological target: actin (rabbit muscle), P68135
Test: fluorescence anisotropy
Settings: chain shown with the change, actin filaments titrated 0-12 µM

Binder | Kd (20 nM TMR-labeled KLP-AAA Cdc42EP3 (TMR at C211) held fixed) [µM] | Kd (20 nM TMR-labeled IS-AA Cdc42EP3 (TMR at C211) held fixed) [µM]
Cdc42EP3 labeled with tetramethylrhodamine (TMR) at C211, Q9UKI2 KLP->AAA (protein) MPAKTPIYLKAANNKKGKKFKLRDILSPDMISPPLGDFRHTIHIGKEGQHDVFGDISFLQGNYELLPGNQEKAHLGQFPGHNEFFRANSTSDSVFTETPSPVLKNAISLPTIGGSQALMLPLLSPVTFNSKQESFGPAAAARLSAEPVMEEKAQEKSSLLENGTVHQGDTSWGSSGSASQSSQGRDSHSSSLSEQYPDWPAEDMFDHPTPCELIKGKTKSEESLSDLTGSLLSLQLDLGPSLLDEVLNVMDKNK | 3.4 | 
Cdc42EP3 labeled with tetramethylrhodamine (TMR) at C211, Q9UKI2 IS->AA (protein) MPAKTPIYLKAANNKKGKKFKLRDILSPDMAAPPLGDFRHTIHIGKEGQHDVFGDISFLQGNYELLPGNQEKAHLGQFPGHNEFFRANSTSDSVFTETPSPVLKNAISLPTIGGSQALMLPLLSPVTFNSKQESFGPAKLPRLSAEPVMEEKAQEKSSLLENGTVHQGDTSWGSSGSASQSSQGRDSHSSSLSEQYPDWPAEDMFDHPTPCELIKGKTKSEESLSDLTGSLLSLQLDLGPSLLDEVLNVMDKNK |  | 2.8
